Source: US20040102370A1 (IMPERIAL INNOVATIONS, published 2004)
Where “and” joins values, the source holds several entries; their conditions need not be identical. Equal values may be shown once. No end group written: not given here.

B1: Peptide D: Acetyl-EGMEGM-amide (peptide)
peptide: Ac-EGMEGM-NH2
B2: Peptide F: Acetyl-DAVEPYSSTA-amide (peptide)
peptide: Ac-DAVEPYSSTA-NH2
B3: Peptide A(d): [{Ac-DRVEPYSSTA}2-K]2-K-OH (peptide)
peptide: Ac-DRVEPYSSTA
chain: Lys-OH
modifications: also: four copies of chain 1 on a branched core of three lysines (two Lys on α- and ε-amines of C-terminal Lys)
B4: Peptide B: Acetyl-DRVE-amide (peptide)
peptide: Ac-DRVE-NH2

Molecular target: FGF receptors
Assay: cell-based or functional assay

Binder | peptide concentration giving maximal effect in the neurite outgrowth assay
B1 | 63 µg/ml and 100 µM
B2 | 100 µg/ml and 100 µM
B3 | ~0.4 µM
B4 | 75 µg/ml and 150 µM
